{"source": "patent US20240415886A1", "about": "(published 2024)", "target": "T1, p53 wild type peptide on HLA-A*02:01 (human)", "T1 peptide": "HMTEVVRRC", "test": "activation reporter or marker"}
{"binder": "p53R175H peptide specific TCR (the inventive TCR) (TCR, V domains shown) Valpha: GIQVEQSPPDLILQEGANSTLRCNFSDSVNNLQWFHQNPWGQLINLFYIPSGTKQNGRLSATTVATERYSLLYISSSQTTDSGVYFCAVNQAGTALIFGKGTTLSVSS Vbeta: EPEVTQTPSHQVTQMGQEVILRCVPISNHLYFYWYRQILGQKVEFLVSFYNNEISEKSEIFDDQFSVERPDGSNFTLKIRSTKLEDSAMYFCASMGTGDEAFFGQGTRLTVV", "values": [{"measurement": "binding result", "value": "no recognition"}]}
